The test system of this series is Escherichia coli TOP10. Put plainly: shrunken log2 fold change of peptide-encoding DNA abundance (4.5 h post-induction vs induction); higher = less antimicrobial activity (less host growth inhibition). The note with it: time post-induction: 4.5 h; library: site-saturation at positions 5, 18, 19, 20.
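Also: peptides expressed intracellularly from a pBAD plasmid library in pooled LB shake-flask culture, induced with 0.3% L-arabinose, DNA abundance read by NGS, three biological replicates, DESeq2 with apeglm shrinkage.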

Take RRIRERPPRLPRPRPRPEKIPRP: the “shrunken log2 fold change” value was determined as 0.0141.
With RRIRDRPPRLPRPRPRPHEEPRP the figure was 0.175; with RRIRDRPPRLPRPRPRPSVLPRP, -0.246; with RRIRIRPPRLPRPRPRPHTHPRP, -0.92.
As to RRIRGRPPRLPRPRPRPKQTPRP, the “shrunken log2 fold change” value was determined as 0.175.
On to RRIRTRPPRLPRPRPRPRTLPRP, for which the “shrunken log2 fold change” value was -0.121.
As for RRIRSRPPRLPRPRPRPISKPRP, the figure is -0.211; as for RRIRPRPPRLPRPRPRPDRFPRP, -0.137; as for RRIRCRPPRLPRPRPRPSHIPRP, -0.637.
On to RRIRMRPPRLPRPRPRPQIDPRP, for which the “shrunken log2 fold change” value was determined as 0.141.
As for RRIRDRPPRLPRPRPRPQRYPRP, the figure is -0.0811; as for RRIRRRPPRLPRPRPRPIAKPRP, 0.252.
As for RRIRYRPPRLPRPRPRPTWKPRP, the figure is -0.333.
With RRIRFRPPRLPRPRPRPPLPPRP, the “shrunken log2 fold change” value came out at 0.661.
In the case of RRIRHRPPRLPRPRPRPNDIPRP, the “shrunken log2 fold change” value is -0.0322.
RRIRNRPPRLPRPRPRPWHEPRP: the “shrunken log2 fold change” value was -0.454.
With RRIRWRPPRLPRPRPRPLYYPRP, the “shrunken log2 fold change” value is -0.762.
Regarding RRIRSRPPRLPRPRPRPAMGPRP, the “shrunken log2 fold change” value worked out at 0.313.
For the sequence RRIRGRPPRLPRPRPRPSWSPRP, the “shrunken log2 fold change” value stood at 0.425.
As to RRIRRRPPRLPRPRPRPQVVPRP, the “shrunken log2 fold change” value stood at 0.0705.
As for RRIRGRPPRLPRPRPRPDEMPRP, the figure is -0.0376; as for RRIRIRPPRLPRPRPRPLFSPRP, -0.423.
For the sequence RRIRERPPRLPRPRPRPPFNPRP, the “shrunken log2 fold change” value is -0.275.
Take RRIRDRPPRLPRPRPRPCIYPRP: the “shrunken log2 fold change” value is -0.0518.
For RRIRSRPPRLPRPRPRPEFCPRP, the “shrunken log2 fold change” value worked out at 0.132.
As for RRIRPRPPRLPRPRPRPNGQPRP, the figure is 0.097; as for RRIRKRPPRLPRPRPRPQKIPRP, -0.0746; as for RRIRQRPPRLPRPRPRPTTIPRP, -0.116.
For RRIRSRPPRLPRPRPRPKGWPRP, the “shrunken log2 fold change” value was 1.19.
As to RRIRTRPPRLPRPRPRPCAEPRP, the “shrunken log2 fold change” value was -0.11.
In the case of RRIRTRPPRLPRPRPRPMFTPRP, the “shrunken log2 fold change” value was -0.253.
With RRIRSRPPRLPRPRPRPVNIPRP the figure was -0.261; with RRIRLRPPRLPRPRPRPSRNPRP, -0.0105.
With RRIRGRPPRLPRPRPRPEHMPRP, the “shrunken log2 fold change” value was found to be 0.396.
With RRIRERPPRLPRPRPRPKLRPRP the figure was -0.0804.
As to RRIRNRPPRLPRPRPRPSCNPRP, the “shrunken log2 fold change” value was -0.485.
Consider RRIRIRPPRLPRPRPRPRQVPRP, for which the “shrunken log2 fold change” value turned out to be 0.0368.
For RRIRSRPPRLPRPRPRPCFNPRP, the “shrunken log2 fold change” value was -0.828.
Regarding RRIRLRPPRLPRPRPRPLDHPRP, the “shrunken log2 fold change” value is -0.1.
For the sequence RRIRLRPPRLPRPRPRPMDFPRP, the “shrunken log2 fold change” value was -0.0499.
Turning to RRIRLRPPRLPRPRPRPKLSPRP, the “shrunken log2 fold change” value came out at 0.0605.
As for RRIRMRPPRLPRPRPRPVPCPRP, the “shrunken log2 fold change” value came out at 0.291.
In the case of RRIRMRPPRLPRPRPRPGFKPRP, the “shrunken log2 fold change” value was 0.46.
As to RRIRMRPPRLPRPRPRPRSAPRP, the “shrunken log2 fold change” value amounted to 1.36.
Regarding RRIRWRPPRLPRPRPRPFMYPRP, the “shrunken log2 fold change” value is -0.0072.
As for RRIRERPPRLPRPRPRPRQCPRP, the figure is 0.123.
For the sequence RRIRTRPPRLPRPRPRPPKLPRP, the “shrunken log2 fold change” value was -0.0543.
With RRIRTRPPRLPRPRPRPYWCPRP the figure was -0.53.
With RRIRNRPPRLPRPRPRPHNAPRP the figure was -0.175; with RRIRERPPRLPRPRPRPKEIPRP, -0.357.
Turning to RRIRVRPPRLPRPRPRPPVLPRP, the “shrunken log2 fold change” value is -0.201.
RRIRTRPPRLPRPRPRPTNKPRP: the “shrunken log2 fold change” value is -0.444.
For the sequence RRIRKRPPRLPRPRPRPWNQPRP, the “shrunken log2 fold change” value is -0.0169.
For RRIRTRPPRLPRPRPRPDFYPRP, the “shrunken log2 fold change” value is -0.241.
For the sequence RRIRLRPPRLPRPRPRPQTQPRP, the “shrunken log2 fold change” value was 0.0159.
Turning to RRIRVRPPRLPRPRPRPKTLPRP, the “shrunken log2 fold change” value was -0.0985.
For the sequence RRIRYRPPRLPRPRPRPGLNPRP, the “shrunken log2 fold change” value is -0.489.
On to RRIRHRPPRLPRPRPRPAAMPRP, for which the “shrunken log2 fold change” value stood at 0.191.
As for RRIRDRPPRLPRPRPRPNLIPRP, the figure is -0.15; as for RRIRTRPPRLPRPRPRPEHMPRP, -0.0375; as for RRIRDRPPRLPRPRPRPSIVPRP, -0.0831.
On to RRIRERPPRLPRPRPRPNAWPRP, for which the “shrunken log2 fold change” value was 0.113.
With RRIRVRPPRLPRPRPRPCGLPRP the figure was -0.173.
As for RRIRTRPPRLPRPRPRPFQTPRP, the “shrunken log2 fold change” value worked out at 0.0582.
With RRIRRRPPRLPRPRPRPGTWPRP the figure was 0.0793; with RRIRTRPPRLPRPRPRPCTQPRP, -0.123; with RRIRHRPPRLPRPRPRPIIPPRP, -0.197.
RRIRHRPPRLPRPRPRPRSKPRP: the “shrunken log2 fold change” value stood at 3.34.
With RRIRDRPPRLPRPRPRPVITPRP the figure was 0.0916.
With RRIRWRPPRLPRPRPRPVLPPRP the figure was -0.0604; with RRIRIRPPRLPRPRPRPQVEPRP, -0.127.
Consider RRIRKRPPRLPRPRPRPMCNPRP, for which the “shrunken log2 fold change” value worked out at 0.26.
With RRIRLRPPRLPRPRPRPLPVPRP the figure was 0.0348.
As for RRIRTRPPRLPRPRPRPYTPPRP, the “shrunken log2 fold change” value was -0.34.
For the sequence RRIRQRPPRLPRPRPRPCSSPRP, the “shrunken log2 fold change” value was -0.0115.
Take RRIRLRPPRLPRPRPRPYGNPRP: the “shrunken log2 fold change” value is 0.0303.
In the case of RRIRRRPPRLPRPRPRPTQLPRP, the “shrunken log2 fold change” value worked out at 0.628.
As for RRIRRRPPRLPRPRPRPMVGPRP, the figure is 0.397.
On to RRIRRRPPRLPRPRPRPHIPPRP, for which the “shrunken log2 fold change” value is -0.126.
As to RRIRHRPPRLPRPRPRPKPSPRP, the “shrunken log2 fold change” value is 0.411.
Consider RRIRIRPPRLPRPRPRPMIIPRP, for which the “shrunken log2 fold change” value was -0.295.
For RRIRHRPPRLPRPRPRPHLGPRP, the “shrunken log2 fold change” value came to 0.0478.
RRIRHRPPRLPRPRPRPPSPPRP: the “shrunken log2 fold change” value was determined as 0.169.
RRIRDRPPRLPRPRPRPCSAPRP: the “shrunken log2 fold change” value worked out at 0.45.
On to RRIRYRPPRLPRPRPRPAKTPRP, for which the “shrunken log2 fold change” value was -0.00829.
Take RRIRERPPRLPRPRPRPAEGPRP: the “shrunken log2 fold change” value was -0.179.
Consider RRIRKRPPRLPRPRPRPMRMPRP, for which the “shrunken log2 fold change” value turned out to be 1.84.
With RRIRWRPPRLPRPRPRPAYDPRP the figure was 0.126; with RRIRDRPPRLPRPRPRPMCWPRP, 0.564; with RRIRHRPPRLPRPRPRPNAVPRP, 0.0142.
With RRIRYRPPRLPRPRPRPAVDPRP, the “shrunken log2 fold change” value is -0.0338.
Take RRIRFRPPRLPRPRPRPCRGPRP: the “shrunken log2 fold change” value is -0.106.
RRIRIRPPRLPRPRPRPGDQPRP: the “shrunken log2 fold change” value was -0.0693.
Take RRIRGRPPRLPRPRPRPYSIPRP: the “shrunken log2 fold change” value worked out at 0.273.
In the case of RRIRLRPPRLPRPRPRPMVEPRP, the “shrunken log2 fold change” value was -0.0178.
Take RRIRMRPPRLPRPRPRPVPMPRP: the “shrunken log2 fold change” value is 0.44.
For RRIRKRPPRLPRPRPRPSMIPRP, the “shrunken log2 fold change” value was -0.0957.
Turning to RRIRNRPPRLPRPRPRPAQYPRP, the “shrunken log2 fold change” value came out at 0.103.
As for RRIRARPPRLPRPRPRPIYLPRP, the figure is -0.152; as for RRIRKRPPRLPRPRPRPRRWPRP, 0.717.
As for RRIRPRPPRLPRPRPRPQTQPRP, the figure is 0.115.
For RRIRQRPPRLPRPRPRPCALPRP, the “shrunken log2 fold change” value was 0.0342.
With RRIRHRPPRLPRPRPRPYCQPRP the figure was -0.746; with RRIRLRPPRLPRPRPRPWSKPRP, -0.547; with RRIRQRPPRLPRPRPRPKWTPRP, -0.164.
Turning to RRIRNRPPRLPRPRPRPARTPRP, the “shrunken log2 fold change” value turned out to be 0.139.
With RRIRNRPPRLPRPRPRPSYEPRP, the “shrunken log2 fold change” value is -0.999.
With RRIRRRPPRLPRPRPRPGNRPRP, the “shrunken log2 fold change” value was -0.151.
Turning to RRIRKRPPRLPRPRPRPNPVPRP, the “shrunken log2 fold change” value worked out at 0.0163.
Consider RRIRTRPPRLPRPRPRPVQTPRP, for which the “shrunken log2 fold change” value came out at 0.216.
For the sequence RRIRHRPPRLPRPRPRPDVTPRP, the “shrunken log2 fold change” value is -0.0437.
RRIRARPPRLPRPRPRPKACPRP: the “shrunken log2 fold change” value was found to be 0.19.
Regarding RRIRDRPPRLPRPRPRPYMSPRP, the “shrunken log2 fold change” value is -0.00753.
As to RRIRCRPPRLPRPRPRPQGCPRP, the “shrunken log2 fold change” value is -0.0977.
Take RRIRQRPPRLPRPRPRPLAVPRP: the “shrunken log2 fold change” value is 0.0758.
As for RRIRQRPPRLPRPRPRPKNVPRP, the figure is 0.225.
On to RRIRSRPPRLPRPRPRPENWPRP, for which the “shrunken log2 fold change” value is -0.0386.
For the sequence RRIRTRPPRLPRPRPRPRNVPRP, the “shrunken log2 fold change” value is -0.128.
On to RRIRDRPPRLPRPRPRPNIGPRP, for which the “shrunken log2 fold change” value is -0.0132.
On to RRIRWRPPRLPRPRPRPPMYPRP, for which the “shrunken log2 fold change” value is -0.216.
For RRIRCRPPRLPRPRPRPHVEPRP, the “shrunken log2 fold change” value was -0.421.
Regarding RRIRVRPPRLPRPRPRPGCRPRP, the “shrunken log2 fold change” value was 0.5.
Regarding RRIRCRPPRLPRPRPRPKCVPRP, the “shrunken log2 fold change” value is -0.0957.
With RRIRGRPPRLPRPRPRPREVPRP, the “shrunken log2 fold change” value was found to be 1.05.
RRIRRRPPRLPRPRPRPFMMPRP: the “shrunken log2 fold change” value was -0.173.

Values taken from the supplement of paper PMC9112550, “Optimization of the antimicrobial peptide Bac7 by deep mutational scanning” (BMC Biology, 2022).
